Test results reported in article PMC4944209 (Journal of structural biology, 2016).

Target: the molecule itself
Assay: cryo-EM structure

B1: OmpF, β-barrel channel protein from the outer membrane of E. coli (natural protein, UniProt P02931 23-362, looked up)
chain: AEIYNKDGNKVDLYGKAVGLHYFSKGNGENSYGGNGDMTYARLGFKGETQINSDLTGYGQWEYNFQGNNSEGADAQTGNKTRLAFAGLKYADVGSFDYGRNYGVVYDALGYTDMLPEFGGDTAYSDDFFVGRVGGVATYRNSNFFGLVDGLNFAVQYLGKNERDTARRSNGDGVGGSISYEYEGFGIVGAYGAADRTNLQEAQPLGNGKKAEQWATGLKYDANNIYLAANYGETRNATPITNKFTNTSGFANKTQDVLLVAQYQFDFGLRPSIAYTKSKAKDVEGIGDVDLVNYFEVGATYYFNKNMSTYVDYIINQIDSDNKLGVGSDDTVAVGIVYQF
- stoichiometry N: 3
